Experimental data: patent publication US20200347146A1 (published 2020)

How the values were obtained:
[1] = target: human PD-L1 protein (soluble) (human, UniProt Q9NZQ7 19-238); assay: ELISA
[2] = target: T1, human CD73 protein (soluble) (human, UniProt P21589 27-549); assay: ELISA
T1 chain: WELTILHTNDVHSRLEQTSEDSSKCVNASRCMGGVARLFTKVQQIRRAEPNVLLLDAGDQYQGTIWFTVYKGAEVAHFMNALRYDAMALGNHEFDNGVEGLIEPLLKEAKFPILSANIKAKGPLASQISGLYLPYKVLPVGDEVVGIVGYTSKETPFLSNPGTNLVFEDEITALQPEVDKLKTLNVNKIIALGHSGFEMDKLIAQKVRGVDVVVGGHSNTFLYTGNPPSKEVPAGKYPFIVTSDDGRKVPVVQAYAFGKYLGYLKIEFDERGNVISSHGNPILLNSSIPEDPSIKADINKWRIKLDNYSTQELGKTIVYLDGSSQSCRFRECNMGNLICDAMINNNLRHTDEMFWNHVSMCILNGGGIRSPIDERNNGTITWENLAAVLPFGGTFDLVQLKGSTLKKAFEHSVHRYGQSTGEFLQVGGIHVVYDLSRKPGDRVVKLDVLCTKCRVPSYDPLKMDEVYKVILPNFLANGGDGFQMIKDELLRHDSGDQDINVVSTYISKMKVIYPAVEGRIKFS

[3] = target: human PD-L1 on PD-L1 positive Raji cells (human, UniProt Q9NZQ7 19-290); assay: flow cytometry cell binding
[4] = target: T2, CD73 on the surface of A375 cells (UniProt P21589 27-549); assay: flow cytometry cell binding
T2 chain: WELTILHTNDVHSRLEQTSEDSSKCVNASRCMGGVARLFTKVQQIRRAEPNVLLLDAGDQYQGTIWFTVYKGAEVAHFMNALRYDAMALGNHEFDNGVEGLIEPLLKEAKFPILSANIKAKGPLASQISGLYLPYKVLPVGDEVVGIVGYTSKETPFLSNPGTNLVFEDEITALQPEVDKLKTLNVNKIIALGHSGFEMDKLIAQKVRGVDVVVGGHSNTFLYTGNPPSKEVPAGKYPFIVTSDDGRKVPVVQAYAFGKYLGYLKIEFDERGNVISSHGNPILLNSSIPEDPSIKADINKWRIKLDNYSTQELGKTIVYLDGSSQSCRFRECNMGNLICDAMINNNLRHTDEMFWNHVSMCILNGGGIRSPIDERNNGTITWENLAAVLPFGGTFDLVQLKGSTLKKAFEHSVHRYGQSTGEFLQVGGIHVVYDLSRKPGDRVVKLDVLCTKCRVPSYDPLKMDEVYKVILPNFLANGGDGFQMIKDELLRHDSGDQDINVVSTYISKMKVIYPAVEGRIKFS

human PD-L1 protein (soluble), sequence (Q9NZQ7 19-238): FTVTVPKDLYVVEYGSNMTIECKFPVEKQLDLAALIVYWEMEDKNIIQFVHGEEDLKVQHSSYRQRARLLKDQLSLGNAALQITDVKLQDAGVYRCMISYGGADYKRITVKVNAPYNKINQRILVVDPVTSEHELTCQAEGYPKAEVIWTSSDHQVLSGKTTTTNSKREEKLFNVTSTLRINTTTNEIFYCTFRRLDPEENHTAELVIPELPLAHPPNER
human PD-L1 on PD-L1 positive Raji cells, sequence (Q9NZQ7 19-290): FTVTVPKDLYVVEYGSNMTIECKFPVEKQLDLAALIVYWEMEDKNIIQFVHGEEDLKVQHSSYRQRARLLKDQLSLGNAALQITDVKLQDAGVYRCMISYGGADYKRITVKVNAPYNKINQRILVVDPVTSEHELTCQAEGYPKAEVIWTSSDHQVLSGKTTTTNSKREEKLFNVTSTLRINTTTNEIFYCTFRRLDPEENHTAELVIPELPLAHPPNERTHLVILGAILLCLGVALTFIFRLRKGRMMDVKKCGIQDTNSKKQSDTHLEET

Binder | EC50 [1] | EC50 [2] | EC50 [3] | EC50 [4]
anti-CD73/PD-L1 bispecific antibody 309-H12 (structure A of FIG. 1) (bispecific antibody) heavy: not shown light: EIVLSQSPATLSLSPGERATLSCRASSRVNYMHWYQQKPGQSPRPWISATSNLASGVPARFSGSGSGTSYTLTISSLEPEDFAVYYCQQWSSNPPTFGGGTKVEIKRTVAAPSVFIFPPSDEQLKSGTASVVCLLNNFYPREAKVQWKVDNALQSGNSQESVTEQDSKDSTYSLSSTLTLSKADYEKHKVYACEVTHQGLSSPVTKSFNRGEC | 0.179 nM | 0.0715 nM | 0.255 nM | 2.24 nM
hu309 (monospecific anti-CD73 antibody with the 309 VH and 309 VL) (antibody, V domains shown) VH: EVQLQESGPGLVKPSETLSLTCAVSGYSITSGYYWNWIRQPPGKKLEWMGYINYGGSNGYNPSLKSRITISRDTSKNQFSLKLSSVTAADTAVYYCARDYDAYYEALDDWGQGTTVTVSS VL: EIVLSQSPATLSLSPGERATLSCRASSRVNYMHWYQQKPGQSPRPWISATSNLASGVPARFSGSGSGTSYTLTISSLEPEDFAVYYCQQWSSNPPTFGGGTKVEIK |  | 0.0575 nM |  | 2.06 nM
H12(PDL1) (monospecific anti-PD-L1 antibody with the H12 VH and H12 VL) (antibody, V domains shown) VH: EVQLVESGGGLVQPGGSLRLSCAASGFTFSSYDMSWVRQAPGKSLEWVATISDAGGYIYYRDSVKGRFTISRDNAKNSLYLQMNSLRDEDTAVYICARELPWRYALDYWGQGTTVTVSS VL: DIQMTQSPSSLSASVGDRVTITCKASQDVTPAVAWYQQKPGKAPKLLIYSTSSRYTGVPSRFSGSGSGTDFTFTISSLQPEDIATYYCQQHYTTPLTFGQGTKLEIK | 0.00948 nM |  | 0.0237 nM | 
